Test results taken from the supplement of paper PMC9112550, “Optimization of the antimicrobial peptide Bac7 by deep mutational scanning” (BMC Biology, 2022).

These sequences were tested on Escherichia coli TOP10 (assay: shrunken log2 fold change of peptide-encoding DNA abundance (4.5 h post-induction vs induction); higher = less antimicrobial activity (less host growth inhibition)). Settings: time post-induction: 4.5 h; library: site-saturation at positions 5, 18, 19, 20.
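Further: peptides expressed intracellularly from a pBAD plasmid library in pooled LB shake-flask culture, induced with 0.3% L-arabinose, DNA abundance read by NGS, three biological replicates, DESeq2 with apeglm shrinkage.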

Sequence | shrunken log2 fold change
RRIRRRPPRLPRPRPRPDTRPRP | -0.0459
RRIRRRPPRLPRPRPRPDTYPRP | -0.193
RRIRRRPPRLPRPRPRPDYAPRP | 0.559
RRIRRRPPRLPRPRPRPDYHPRP | -0.0959
RRIRRRPPRLPRPRPRPDYVPRP | 0.0255
RRIRRRPPRLPRPRPRPEALPRP | 0.115
RRIRRRPPRLPRPRPRPEARPRP | 0.172
RRIRRRPPRLPRPRPRPECKPRP | -0.0282
RRIRRRPPRLPRPRPRPEDHPRP | 0.122
RRIRRRPPRLPRPRPRPEDLPRP | -0.00437
RRIRRRPPRLPRPRPRPEFIPRP | -0.0197
RRIRRRPPRLPRPRPRPEIDPRP | -0.00263
RRIRRRPPRLPRPRPRPEIMPRP | 0.209
RRIRRRPPRLPRPRPRPEISPRP | 0.17
RRIRRRPPRLPRPRPRPEIVPRP | 0.246
RRIRRRPPRLPRPRPRPEKEPRP | 0.224
RRIRRRPPRLPRPRPRPEKNPRP | 0.289
RRIRRRPPRLPRPRPRPEKTPRP | 0.00726
RRIRRRPPRLPRPRPRPEKVPRP | 0.448
RRIRRRPPRLPRPRPRPELLPRP | 0.147
RRIRRRPPRLPRPRPRPELPPRP | 0.695
RRIRRRPPRLPRPRPRPEMTPRP | 0.638
RRIRRRPPRLPRPRPRPENIPRP | -0.468
RRIRRRPPRLPRPRPRPENKPRP | -0.0891
RRIRRRPPRLPRPRPRPEPQPRP | 1.03

Sequence | shrunken log2 fold change
RRIRRRPPRLPRPRPRPEPRPRP | 1.02
RRIRRRPPRLPRPRPRPEQFPRP | 0.212
RRIRRRPPRLPRPRPRPEQIPRP | 0.0197
RRIRRRPPRLPRPRPRPEQLPRP | 0.203
RRIRRRPPRLPRPRPRPEQWPRP | -0.173
RRIRRRPPRLPRPRPRPERGPRP | 0.798
RRIRRRPPRLPRPRPRPERLPRP | 0.474
RRIRRRPPRLPRPRPRPESDPRP | 0.6
RRIRRRPPRLPRPRPRPESIPRP | -0.195
RRIRRRPPRLPRPRPRPETLPRP | 0.0675
RRIRRRPPRLPRPRPRPETVPRP | -0.11
RRIRRRPPRLPRPRPRPEVAPRP | 0.345
RRIRRRPPRLPRPRPRPEVWPRP | 1.74
RRIRRRPPRLPRPRPRPEWIPRP | 0.361
RRIRRRPPRLPRPRPRPEWQPRP | 0.0758
RRIRRRPPRLPRPRPRPEWWPRP | -0.0131
RRIRRRPPRLPRPRPRPEYKPRP | -0.0169
RRIRRRPPRLPRPRPRPEYWPRP | 0.0322
RRIRRRPPRLPRPRPRPFAQPRP | 0.199
RRIRRRPPRLPRPRPRPFCGPRP | 0.143
RRIRRRPPRLPRPRPRPFERPRP | 0.0145
RRIRRRPPRLPRPRPRPFFGPRP | 0.159
RRIRRRPPRLPRPRPRPFGCPRP | 0.222
RRIRRRPPRLPRPRPRPFIWPRP | 0.0601
RRIRRRPPRLPRPRPRPFKCPRP | -0.135

Sequence | shrunken log2 fold change
RRIRRRPPRLPRPRPRPFKKPRP | -0.0451
RRIRRRPPRLPRPRPRPFKNPRP | 0.0357
RRIRRRPPRLPRPRPRPFKSPRP | -0.336
RRIRRRPPRLPRPRPRPFLDPRP | 0.0172
RRIRRRPPRLPRPRPRPFMAPRP | 0.113
RRIRRRPPRLPRPRPRPFMCPRP | 0.0373
RRIRRRPPRLPRPRPRPFNDPRP | 0.0417
RRIRRRPPRLPRPRPRPFPHPRP | 0.292
RRIRRRPPRLPRPRPRPFPIPRP | 0.199
RRIRRRPPRLPRPRPRPFPTPRP | 0.164
RRIRRRPPRLPRPRPRPFRYPRP | 0.292
RRIRRRPPRLPRPRPRPFSAPRP | -0.274
RRIRRRPPRLPRPRPRPFSTPRP | -0.0277
RRIRRRPPRLPRPRPRPFTEPRP | -0.267
RRIRRRPPRLPRPRPRPFVFPRP | 0.274
RRIRRRPPRLPRPRPRPFWDPRP | -0.0897
RRIRRRPPRLPRPRPRPFWSPRP | 0.18
RRIRRRPPRLPRPRPRPFYQPRP | -0.46
RRIRRRPPRLPRPRPRPGAGPRP | 0.475
RRIRRRPPRLPRPRPRPGAMPRP | 0.337
RRIRRRPPRLPRPRPRPGAYPRP | 0.00783
RRIRRRPPRLPRPRPRPGCFPRP | 0.5
RRIRRRPPRLPRPRPRPGCNPRP | 0.327
RRIRRRPPRLPRPRPRPGDLPRP | 1.58
RRIRRRPPRLPRPRPRPGEPPRP | 0.41

Sequence | shrunken log2 fold change
RRIRRRPPRLPRPRPRPGFWPRP | 0.333
RRIRRRPPRLPRPRPRPGHIPRP | -0.116
RRIRRRPPRLPRPRPRPGLAPRP | 0.763
RRIRRRPPRLPRPRPRPGLIPRP | 0.238
RRIRRRPPRLPRPRPRPGLQPRP | -0.0644
RRIRRRPPRLPRPRPRPGMIPRP | -0.00969
RRIRRRPPRLPRPRPRPGNQPRP | 0.0401
RRIRRRPPRLPRPRPRPGNSPRP | 0.119
RRIRRRPPRLPRPRPRPGPEPRP | 0.662
RRIRRRPPRLPRPRPRPGPGPRP | 0.598
RRIRRRPPRLPRPRPRPGQCPRP | 0.22
RRIRRRPPRLPRPRPRPGQDPRP | 0.112
RRIRRRPPRLPRPRPRPGQHPRP | -0.0579
RRIRRRPPRLPRPRPRPGQMPRP | 0.0545
RRIRRRPPRLPRPRPRPGRGPRP | 0.805
RRIRRRPPRLPRPRPRPGRKPRP | 0.332
RRIRRRPPRLPRPRPRPGSGPRP | 0.407
RRIRRRPPRLPRPRPRPGSKPRP | -0.0919
RRIRRRPPRLPRPRPRPGTGPRP | 0.21
RRIRRRPPRLPRPRPRPGVKPRP | 0.187
RRIRRRPPRLPRPRPRPGYWPRP | 0.535
RRIRRRPPRLPRPRPRPHAFPRP | -0.103
RRIRRRPPRLPRPRPRPHCHPRP | -0.134
RRIRRRPPRLPRPRPRPHCTPRP | -0.18
RRIRRRPPRLPRPRPRPHCWPRP | 0.11

Sequence | shrunken log2 fold change
RRIRRRPPRLPRPRPRPHDDPRP | 0.341
RRIRRRPPRLPRPRPRPHDHPRP | 3.24
RRIRRRPPRLPRPRPRPHDYPRP | -0.0628
RRIRRRPPRLPRPRPRPHEKPRP | 0.0358
RRIRRRPPRLPRPRPRPHFCPRP | 0.00733
RRIRRRPPRLPRPRPRPHFHPRP | -0.217
RRIRRRPPRLPRPRPRPHFLPRP | -0.196
RRIRRRPPRLPRPRPRPHGVPRP | 0.055
RRIRRRPPRLPRPRPRPHGWPRP | 0.784
RRIRRRPPRLPRPRPRPHIEPRP | -0.00196
RRIRRRPPRLPRPRPRPHITPRP | -0.385
RRIRRRPPRLPRPRPRPHKFPRP | -0.132
RRIRRRPPRLPRPRPRPHKPPRP | -0.176
RRIRRRPPRLPRPRPRPHKVPRP | 0.0772
RRIRRRPPRLPRPRPRPHLAPRP | -0.0318
RRIRRRPPRLPRPRPRPHLCPRP | 0.189
RRIRRRPPRLPRPRPRPHLVPRP | 0.127
RRIRRRPPRLPRPRPRPHLYPRP | 0.176
RRIRRRPPRLPRPRPRPHMAPRP | -0.128
RRIRRRPPRLPRPRPRPHNCPRP | 0.163
RRIRRRPPRLPRPRPRPHNFPRP | -0.0578
RRIRRRPPRLPRPRPRPHNMPRP | -0.697
RRIRRRPPRLPRPRPRPHNSPRP | 0.0175
RRIRRRPPRLPRPRPRPHQCPRP | -0.0941
RRIRRRPPRLPRPRPRPHQLPRP | -0.225

Sequence | shrunken log2 fold change
RRIRRRPPRLPRPRPRPHREPRP | -0.0451
RRIRRRPPRLPRPRPRPHRVPRP | -0.0232
RRIRRRPPRLPRPRPRPHSFPRP | 0.199
RRIRRRPPRLPRPRPRPHSMPRP | -0.118
RRIRRRPPRLPRPRPRPHTGPRP | -0.105
RRIRRRPPRLPRPRPRPHVHPRP | 0.0274
RRIRRRPPRLPRPRPRPHVWPRP | 0.242
RRIRRRPPRLPRPRPRPHWSPRP | -0.0676
RRIRRRPPRLPRPRPRPHWTPRP | -0.12
RRIRRRPPRLPRPRPRPHYGPRP | -0.178
RRIRRRPPRLPRPRPRPICRPRP | 0.378
RRIRRRPPRLPRPRPRPIDHPRP | -0.12
RRIRRRPPRLPRPRPRPIDIPRP | -0.118
RRIRRRPPRLPRPRPRPIHCPRP | -0.0105
RRIRRRPPRLPRPRPRPIIQPRP | -0.342
RRIRRRPPRLPRPRPRPIKEPRP | 0.0124
RRIRRRPPRLPRPRPRPILNPRP | -0.0188
RRIRRRPPRLPRPRPRPILWPRP | 0.0428
RRIRRRPPRLPRPRPRPIMWPRP | 0.121
RRIRRRPPRLPRPRPRPINHPRP | -0.273
RRIRRRPPRLPRPRPRPINMPRP | -0.271
RRIRRRPPRLPRPRPRPINPPRP | 0.00585
RRIRRRPPRLPRPRPRPIPDPRP | 0.277
RRIRRRPPRLPRPRPRPIPFPRP | -0.175
RRIRRRPPRLPRPRPRPIPNPRP | 0.349
